167 variants from the RNAGym collection of RNA variant scans (doi:10.7554/elife.80360) can be followed below.

B1: CPEB3 Ribozyme (parent)
chain: GGGGGCCACAGCAGAAGCGUUCACGUCGCGGCCCCUGUCAGAUUCUGGUGAAUCUGCGAAUUCUGCUGU

The data set covers variants of B1. The data set is described as follows: self-cleavage, relative activity (ratio to wild type); higher = more cleavage; co-transcriptional.
With C9U G58A, the self-cleavage is 1.03.
For C9U G58U the value was 1.02.
For A10G U61A the value was 0.6.
For A10C C66G the value was 0.892; for A10C C66U, 0.974.
For A10C C66A, the self-cleavage came to 0.862.
The same measure for A10G C12A: 0.356; for A10G C12G: 0.742; for A10G C12U: 0.948.
With A10U C54A, the self-cleavage was 0.902.
The same measure for A10U C54G: 0.958; for C9G U67A: 0.959.
For G11A U26G the value was 0.734; for G11A U26C, 0.863; for G11A G14U, 0.126.
For C9U C22A the value was 0.226; for C9U C22G, 0.21; for C9U, 1.01.
As for A10U U53C, the self-cleavage came to 0.871.
Regarding A10U U44A, the self-cleavage was found to be 0.967.
With A10C U64C, the self-cleavage worked out at 0.769.
The same measure for A10C U64A: 0.779.
Turning to A10G C34U, the self-cleavage was determined as 0.982.
As for G11A C45U, the self-cleavage came to 0.906.
For G11A C45A the value was 0.821.
The same measure for A10G G58U: 0.947; for A10C U49G: 1.04; for A10C C24G: 0.478.
With G11A G28C, the self-cleavage came out at 0.157.
The same measure for G11A G28U: 0.171.
As to G11A G28A, the self-cleavage was determined as 0.16.
Regarding A10G G31C, the self-cleavage came out at 0.322.
The same measure for A10G C45G: 0.839.
The same measure for A10U G11A: 0.873; for A10U G11C: 0.892.
The same measure for A10U G65A: 0.842.
For A10U G65U, the self-cleavage worked out at 0.796.
Turning to C9G U69C, the self-cleavage is 1.07.
As to A10C A52U, the self-cleavage worked out at 0.985.
With A10C A52C, the self-cleavage was 0.986.
For G11A C12U the value was 0.549; for A10G C33U, 0.953; for A10G C33G, 0.854.
G11A A13C: the self-cleavage turned out to be 0.182.
For G11A A13G the value was 0.184; for G11A C32U, 0.95.
For A10U A16U the value was 0.877; for A10U A16G, 0.924; for C9U C27G, 0.203.
For C9U U61C the value was 0.866; for A10G G14C, 0.0631.
As to C9U C33G, the self-cleavage came out at 0.974.
Consider A10G U38A, for which the self-cleavage worked out at 0.784.
Take A10G U38G: the self-cleavage turned out to be 0.182.
In the case of A10G U38C, the self-cleavage was 0.906.
For C9U A13G, the self-cleavage came to 1.04.
For C9G G58A the value was 1.01.
The same measure for A10U G58A: 0.975.
For C9U G47U the value was 1.02.
In the case of C9U G47C, the self-cleavage is 1.06.
G11A A52G: the self-cleavage worked out at 0.928.
The same measure for C9U G56U: 0.971; for A10U U55C: 0.9; for A10C C32G: 0.418.
For A10U G28C the value was 0.137.
Take A10U G28A: the self-cleavage was determined as 0.139.
For A10U G28U, the self-cleavage came to 0.14.
For C9G U53A the value was 0.98; for A10U C18U, 0.883.
For A10U C18A the value was 0.222; for G11A C22G, 0.119; for G11A G31A, 0.838.
The same measure for A10G U62C: 0.376; for C9U G37U: 0.432; for C9U G37C: 0.224.
Turning to A10G U67C, the self-cleavage was 0.967.
Take A10C C33U: the self-cleavage was determined as 0.98.
G11A C35G: the self-cleavage amounted to 0.352.
Regarding G11A C34G, the self-cleavage came to 0.695.
The same measure for G11A C34A: 0.715.
The same measure for A10C A42C: 0.961; for A10C A42G: 0.896; for A10G G17C: 0.106.
For A10C G17U the value was 0.464.
On to A10G U55G, for which the self-cleavage came to 0.36.
The same measure for G11A U21G: 0.285; for A10U G48C: 1.03.
For A10U G48A the value was 1.02; for A10C G31C, 0.233; for G11A U49C, 0.903.
For A10U U46A the value was 0.954.
On to A10U U46C, for which the self-cleavage was found to be 0.983.
For C9U U62A the value was 0.997.
For C9U U62C the value was 0.966; for G11A C33A, 0.853.
As for C9U U44G, the self-cleavage was found to be 1.06.
The same measure for G11A G19A: 0.103.
The same measure for A10C U53G: 0.927.
Regarding G11A G48A, the self-cleavage was 0.906.
Regarding A10U G30U, the self-cleavage is 0.733.
The same measure for A10C G47C: 1; for A10C A40G: 0.976; for C9U A40C: 0.841.
For A10C G50U the value was 1; for A10C G50C, 0.996.
The same measure for C9U C66G: 0.921; for A10U C35G: 0.64.
For the variant A10U C35A, the self-cleavage was 0.245.
Consider A10G U46A, for which the self-cleavage is 0.91.
The same measure for A10C C22A: 0.161.
For A10G A13U the value was 0.13; for A10G A13G, 0.233; for A10U C63U, 0.969.
A10C C29U: the self-cleavage was determined as 0.221.
As for A10U G41C, the self-cleavage is 0.859.
The same measure for A10U U61G: 0.78; for A10U U61A: 0.911; for C9G U64G: 0.936.
For G11A U62G the value was 0.331; for G11A U20A, 0.157.
The same measure for A10G U44G: 0.71; for A10U A52U: 1.02.
A10U A59G: the self-cleavage is 0.968.
For C9U C34U, the self-cleavage is 1.01.
The same measure for A10C G14C: 0.252.
For the variant A10U G31A, the self-cleavage stood at 0.976.
For A10U G31U the value was 0.895; for A10U C66A, 0.845; for A10U C66G, 0.924.
The same measure for A10C U67A: 1.02.
The same measure for C9U G48C: 1.02.
Turning to A10C C18A, the self-cleavage came to 0.12.
For A10C C18U the value was 0.882.
For C9U U69C the value was 1.07; for G11A C57G, 0.262.
For A10C G37A the value was 0.242.
With A10C G56A, the self-cleavage came out at 0.989.
The same measure for A10C G56U: 0.936.
With C9G U38C, the self-cleavage stood at 0.997.
The same measure for A10G U20A: 0.0584; for C9U G19C: 0.143; for C9G U61G: 0.958.
The same measure for C9U U53C: 0.931; for G11A G50A: 0.852.
For A10C A23G the value was 0.94.
In the case of A10U A51U, the self-cleavage was determined as 1.04.
The same measure for A10U A51G: 0.955.
The same measure for C9G U20C: 0.254; for C9U C39U: 0.935.
For C9U G11U the value was 0.945; for C9U U26A, 0.929; for C9U U26G, 0.942.
With A10G G47U, the self-cleavage was 0.919.
The same measure for C9U G28U: 0.169; for A10U U64G: 0.897; for A10U U64A: 0.8.
For G11A U55C the value was 0.493.
The same measure for G11A G65C: 0.557.
As to A10C U44G, the self-cleavage amounted to 1.02.
The same measure for G11A G37U: 0.156; for A10U C29A: 0.722; for A10G C18G: 0.0572.
For A10G C18A the value was 0.0954; for A10G C18U, 0.264; for C9U U20G, 0.17.
For G11A G56C the value was 0.437; for A10C U36C, 0.966.
